The record followed here is US20170137467A1 (CHROMOTEK, published 2017).

As a reminder, the Kd is the equilibrium constant for the complex coming apart.

Test [1] addresses T1, mCherry-Vimentin with C-terminal BC2 tag (mCherry-VIMBC2T) (human, UniProt P08670 1-466).
T1 construct: Expressed in HEK293T or HeLa cells; also called mCherry-VimentinBC2T; not shown: mCherry fluorescent protein
In words: immunoprecipitation from HEK293T lysate, immunoblot with anti-vimentin. How it is done:
HEK293T cells transiently expressing eGFP, eGFPBC2T or BC2TeGFP, eGFP-PCNA, eGFP-PCNABC2T, mCherry-Vimentin, mCherry-VimentinBC2T were washed and harvested in phosphate buffered saline (PBS), snap-frozen in liquid nitrogen and stored at −20° C. Cell pellets were homogenized in 200 μl lysis buffer (10 mM Tris/Cl pH 7.5, 150 mM NaCl, 0.5% NP40, 1 μg DNaseI, 2 mM MgCl₂, 2 mM PMSF, 1× protease inhibitor mix M (Serva) by repeated pipetting for 40 min on ice. After a centrifugation step (10 min at 18.000×g) the protein concentration of each lysate was determined using a Pierce BCA Protein Assay Kit (Thermo Fisher Scientific) according to manufacturer's protocol and the protein solutions were adjusted with dilution buffer (10 mM Tris/Cl pH 7.5, 150 mM NaCl, 2 mM PMSF) to a concentration of 1 mg/ml. 2% of the supernatant were added to SDS-containing sample buffer (referred to as input). […] After a centrifugation step (2 min, 2500×g) the precleared supernatant was transferred to a new cup. 2% were added to SDS-containing sample buffer (referred to as non-bound). […] Samples were analyzed by SDS-PAGE followed by immunoblotting. Immunoblots were probed with indicated antibodies.
Background: A western blot detects proteins with antibodies after separation by electrophoresis.

The target in test [2] is T2, EPDRKAAVSHWQQQS
T2 construct: unphosphorylated counterpart of 1.m32; also called β-catenin peptide aa 15-29 without phosphorylated Ser23; phos Ser23 -
T2 peptide: EPDRKAAVSHWQQQS
In words: peptide aa 15-29 on microspheres, biotinylated BC2-Nb, streptavidin-PE. From the text: (§1) As negative controls, microspheres comprising Ovalbumin and the Myc-peptide ([…]) covalently coupled to OVA-microspheres were used. […] Evaluation of the PE-signals were done in a Flexmap 3D (Luminex).

Test [3] deals with T3, recombinant human β-catenin, full-length (human, UniProt P35222 1-781, limits assumed).
T3 construct: Purified from E. coli; also called full-length β-catenin
T3 sequence (looked up): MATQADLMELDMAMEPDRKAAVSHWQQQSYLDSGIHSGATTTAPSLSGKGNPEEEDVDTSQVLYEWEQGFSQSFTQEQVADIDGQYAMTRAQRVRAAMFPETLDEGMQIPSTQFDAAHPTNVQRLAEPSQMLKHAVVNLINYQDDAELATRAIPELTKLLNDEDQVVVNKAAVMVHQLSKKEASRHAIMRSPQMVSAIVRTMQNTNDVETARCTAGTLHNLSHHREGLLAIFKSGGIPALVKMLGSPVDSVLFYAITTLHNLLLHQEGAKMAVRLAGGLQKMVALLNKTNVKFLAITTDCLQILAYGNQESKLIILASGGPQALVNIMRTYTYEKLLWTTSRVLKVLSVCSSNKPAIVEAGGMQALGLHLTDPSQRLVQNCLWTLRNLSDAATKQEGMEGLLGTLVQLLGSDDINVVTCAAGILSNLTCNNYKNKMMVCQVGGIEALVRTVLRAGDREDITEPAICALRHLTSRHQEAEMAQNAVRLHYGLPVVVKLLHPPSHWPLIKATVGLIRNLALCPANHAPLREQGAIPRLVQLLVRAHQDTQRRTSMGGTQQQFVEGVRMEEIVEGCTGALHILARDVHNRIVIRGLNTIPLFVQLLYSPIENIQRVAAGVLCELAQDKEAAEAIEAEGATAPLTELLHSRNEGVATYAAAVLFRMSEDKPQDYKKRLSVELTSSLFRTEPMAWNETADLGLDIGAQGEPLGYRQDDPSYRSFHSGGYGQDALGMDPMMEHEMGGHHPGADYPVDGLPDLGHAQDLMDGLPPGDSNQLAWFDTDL
Kind of test: SPR (Biacore 3000), recombinant β-catenin immobilized, five Nb concentrations, 1:1 Langmuir. How it is done:
The dissociation was induced by two injections of regeneration solution of 15 μl each at the identical flow rates.
Background: In SPR one partner is held on a chip, and binding of the other changes the refractive index at the surface.

In test [4] the target is T4, β-catenin peptide 1-15 (human, UniProt P35222).
T4 construct: synthetic 15-mer; additional N-terminal cysteine for coupling; also called Start 1 End 15
T4 peptide (looked up): MATQADLMELDMAME
In words: pepscan: 15-mer peptide on OVA-microspheres, biotinylated BC2-Nb, streptavidin-PE.
From the text: as §1

Test [5] concerns the target T5, β-catenin peptide 101-115 (human, UniProt P35222).
T5 construct: synthetic 15-mer; additional N-terminal cysteine for coupling
T5 peptide (looked up): ETLDEGMQIPSTQFD
The description is as above.
From the text: as §1

The target of test [6] is T6, β-catenin peptide 37-51 (human, UniProt P35222).
T6 construct: synthetic 15-mer; additional N-terminal cysteine for coupling; also called Start 37 End 51
T6 peptide (looked up): SGATTTAPSLSGKGN
The test is described as above.
From the text: as §1

The target in test [7] is T7, β-catenin peptide 57-71 (human, UniProt P35222).
T7 construct: synthetic 15-mer; additional N-terminal cysteine for coupling; also called Start 57 End 71
T7 peptide (looked up): VDTSQVLYEWEQGFS
The description is as above.
From the text: as §1

Test [8] deals with T8, β-catenin peptide 25-39 (human, UniProt P35222).
T8 construct: synthetic 15-mer; additional N-terminal cysteine for coupling; also called Start 25 End 39
T8 peptide (looked up): WQQQSYLDSGIHSGA
The test is described as above.
From the text: as §1

In test [9] the target is T9, β-catenin peptide 45-59 (human, UniProt P35222).
T9 construct: synthetic 15-mer; additional N-terminal cysteine for coupling; also called Start 45 End 59
T9 peptide (looked up): SLSGKGNPEEEDVDT
The test is described as above.
From the text: as §1

Test [10] concerns the target T10, β-catenin peptide 5-19 (human, UniProt P35222).
T10 construct: synthetic 15-mer; additional N-terminal cysteine for coupling; also called Start 5 End 19
T10 peptide (looked up): ADLMELDMAMEPDRK
Described as above.
From the text: as §1

T1 sequence (P08670 other isoform, or with tags, fused parts or gaps): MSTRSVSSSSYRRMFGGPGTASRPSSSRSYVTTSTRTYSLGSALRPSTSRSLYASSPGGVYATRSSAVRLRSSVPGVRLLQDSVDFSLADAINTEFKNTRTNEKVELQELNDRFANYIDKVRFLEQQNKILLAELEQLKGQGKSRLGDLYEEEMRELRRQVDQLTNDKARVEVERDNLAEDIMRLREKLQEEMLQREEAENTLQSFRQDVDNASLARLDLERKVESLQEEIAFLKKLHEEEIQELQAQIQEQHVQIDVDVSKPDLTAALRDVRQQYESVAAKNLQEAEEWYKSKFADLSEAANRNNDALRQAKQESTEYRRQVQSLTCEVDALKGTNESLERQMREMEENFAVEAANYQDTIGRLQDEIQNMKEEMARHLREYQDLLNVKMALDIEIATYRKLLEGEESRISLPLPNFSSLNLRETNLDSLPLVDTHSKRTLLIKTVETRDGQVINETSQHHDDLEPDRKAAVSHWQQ

B1: BC2 nanobody (VHH)
VHH: QVQLVESGGGLVQPGGSLTLSCTASGFTLDHYDIGWFRQAPGKEREGVSCINNSDDDTYYADSVKGRFTIFMDNAKDTVYLQMNSLKPEDTAIYYCAEARGCKRGRYEYDFWGQGTQVTVSS
notes: Alpaca VHH, 122 aa; also called BC2-Nb; BC2 nanotrap (BC2-Nb immobilized on agarose/Sepharose beads); not shown: C-terminal 6xHis-tag added by the pHEN6 vector
Consider B1, for which the binding result is “binds” in test [1]; “binds” in [2]; “no binding (tested: 1 µg/ml BC2-Nb)” in test [4]; “no binding (tested: 1 µg/ml BC2-Nb)” in test [5]; “no binding (tested: 1 µg/ml BC2-Nb)” in test [6]; “no binding (tested: 1 µg/ml BC2-Nb)” in test [7]. Further, the binding result in [8], in test [9] and in [10] was “no binding (tested: 1 µg/ml BC2-Nb)” throughout. The Kd in [3] was ~3.1 nM.
